Consider one molecule from PMC5435944.

The data set concerns the target Mre11-Rad50 (hMR) WT-WT;Nbs1 (Homo sapiens;Homo sapiens, UniProt Q92878;P49959;O60934 1-1312;1-708;1-754, |). Kind of data set: EMSA. For orientation: Mobility shift assays separate free from complexed probe on a gel.

Sequence of Mre11-Rad50 (hMR) WT-WT;Nbs1 (Q92878 whole entry, chain 1 of 3): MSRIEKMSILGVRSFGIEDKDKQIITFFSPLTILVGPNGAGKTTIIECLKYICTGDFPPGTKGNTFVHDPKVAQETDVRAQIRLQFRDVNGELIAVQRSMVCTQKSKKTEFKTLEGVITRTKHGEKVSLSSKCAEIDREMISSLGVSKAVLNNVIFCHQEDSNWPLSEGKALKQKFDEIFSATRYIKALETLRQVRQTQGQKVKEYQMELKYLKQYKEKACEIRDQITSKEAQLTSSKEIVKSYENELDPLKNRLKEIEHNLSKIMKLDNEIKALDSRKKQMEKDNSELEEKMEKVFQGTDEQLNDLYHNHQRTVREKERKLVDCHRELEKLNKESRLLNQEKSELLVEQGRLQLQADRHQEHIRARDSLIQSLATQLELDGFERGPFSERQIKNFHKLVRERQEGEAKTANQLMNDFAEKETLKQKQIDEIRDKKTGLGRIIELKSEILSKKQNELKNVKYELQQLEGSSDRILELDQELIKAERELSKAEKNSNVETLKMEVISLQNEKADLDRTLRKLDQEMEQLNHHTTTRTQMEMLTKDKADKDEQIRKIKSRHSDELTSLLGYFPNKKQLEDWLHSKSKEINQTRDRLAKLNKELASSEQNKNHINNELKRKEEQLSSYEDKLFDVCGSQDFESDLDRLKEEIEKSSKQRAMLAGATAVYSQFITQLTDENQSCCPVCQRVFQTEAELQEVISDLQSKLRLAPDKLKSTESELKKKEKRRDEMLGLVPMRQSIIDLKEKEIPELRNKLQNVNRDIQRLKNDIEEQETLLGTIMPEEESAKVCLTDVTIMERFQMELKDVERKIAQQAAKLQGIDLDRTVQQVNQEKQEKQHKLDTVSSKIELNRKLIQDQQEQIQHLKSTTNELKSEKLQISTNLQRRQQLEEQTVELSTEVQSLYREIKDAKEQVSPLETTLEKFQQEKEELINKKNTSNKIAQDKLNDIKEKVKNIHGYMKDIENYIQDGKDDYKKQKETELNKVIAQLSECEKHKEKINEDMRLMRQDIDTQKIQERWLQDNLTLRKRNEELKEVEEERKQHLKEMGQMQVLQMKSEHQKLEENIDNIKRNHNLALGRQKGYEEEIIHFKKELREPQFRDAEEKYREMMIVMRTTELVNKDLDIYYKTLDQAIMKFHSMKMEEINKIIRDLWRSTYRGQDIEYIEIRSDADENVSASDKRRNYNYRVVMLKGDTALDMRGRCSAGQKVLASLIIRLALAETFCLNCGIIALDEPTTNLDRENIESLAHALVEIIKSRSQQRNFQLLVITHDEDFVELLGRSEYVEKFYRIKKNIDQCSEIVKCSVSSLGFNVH
Sequence of Mre11-Rad50 (hMR) WT-WT;Nbs1 (P49959 whole entry, chain 2 of 3): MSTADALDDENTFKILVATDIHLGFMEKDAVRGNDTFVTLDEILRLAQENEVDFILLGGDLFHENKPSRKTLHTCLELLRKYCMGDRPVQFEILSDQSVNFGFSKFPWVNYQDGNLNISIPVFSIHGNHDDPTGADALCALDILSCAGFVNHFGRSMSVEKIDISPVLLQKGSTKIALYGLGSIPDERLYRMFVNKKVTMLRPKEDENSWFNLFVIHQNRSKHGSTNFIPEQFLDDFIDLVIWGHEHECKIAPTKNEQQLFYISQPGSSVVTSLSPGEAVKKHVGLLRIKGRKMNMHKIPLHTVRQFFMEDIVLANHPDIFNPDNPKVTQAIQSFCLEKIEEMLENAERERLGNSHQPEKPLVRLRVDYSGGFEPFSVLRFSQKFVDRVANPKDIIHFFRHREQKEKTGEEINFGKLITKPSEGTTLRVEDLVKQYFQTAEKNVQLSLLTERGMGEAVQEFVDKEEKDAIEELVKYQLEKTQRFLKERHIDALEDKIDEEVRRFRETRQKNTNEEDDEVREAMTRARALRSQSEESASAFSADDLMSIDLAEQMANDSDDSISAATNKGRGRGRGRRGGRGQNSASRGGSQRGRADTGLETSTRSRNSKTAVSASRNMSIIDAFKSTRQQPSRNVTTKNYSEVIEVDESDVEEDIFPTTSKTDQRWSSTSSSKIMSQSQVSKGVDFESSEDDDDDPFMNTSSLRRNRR
Sequence of Mre11-Rad50 (hMR) WT-WT;Nbs1 (O60934 whole entry, chain 3 of 3): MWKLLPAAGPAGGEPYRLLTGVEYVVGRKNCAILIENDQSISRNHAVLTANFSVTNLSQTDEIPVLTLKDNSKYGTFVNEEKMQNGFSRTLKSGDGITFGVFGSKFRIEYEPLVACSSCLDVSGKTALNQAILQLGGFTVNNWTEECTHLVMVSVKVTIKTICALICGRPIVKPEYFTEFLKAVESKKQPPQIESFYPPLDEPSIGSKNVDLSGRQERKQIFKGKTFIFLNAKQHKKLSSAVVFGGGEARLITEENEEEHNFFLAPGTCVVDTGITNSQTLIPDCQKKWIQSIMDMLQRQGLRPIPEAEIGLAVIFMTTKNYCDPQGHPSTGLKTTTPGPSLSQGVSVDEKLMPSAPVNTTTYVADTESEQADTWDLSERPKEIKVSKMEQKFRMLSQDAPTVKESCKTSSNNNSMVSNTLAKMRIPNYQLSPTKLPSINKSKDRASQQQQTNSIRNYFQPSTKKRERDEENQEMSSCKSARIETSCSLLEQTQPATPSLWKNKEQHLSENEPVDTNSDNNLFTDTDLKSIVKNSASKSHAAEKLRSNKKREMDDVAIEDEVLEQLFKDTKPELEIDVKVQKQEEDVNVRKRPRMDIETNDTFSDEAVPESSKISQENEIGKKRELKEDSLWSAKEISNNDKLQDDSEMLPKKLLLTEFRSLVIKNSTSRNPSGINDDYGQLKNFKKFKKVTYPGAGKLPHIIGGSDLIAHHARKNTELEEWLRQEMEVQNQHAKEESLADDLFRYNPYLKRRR

B1: TP4536/TP4559 (dsDNA)
DNA 1: TGGGTCAACGTGGGCAAAGATGTCCTAGCAATGTAATCGTCTATGACGTT
DNA 2: AACGTCATAGACGATTACATTGCTAGGACATCTTTGCCCACGTTGACCCA
modifications: 5' biotin-TEG on strand 1; five phosphorothioate bonds at 3' end of strand 2 (G*A*C*C*C*A)
Turning to B1, the binding result is given as “binds”.
